Test in all cases: malachite green phosphate release, Lineweaver-Burk
Common to all, as to format: biochemical, Entamoeba histolytica
Holding throughout (conditions): 100 mM MOPS pH 6.0, 37°C, 40 min, di-C8 lipid

Series [1] deals with CCCCCCCC(=O)OC[C@H](COP(=O)(O)O[C@H]1[C@H](O)[C@@H](OP(=O)(O)O)[C@H](OP(=O)(O)O)[C@@H](OP(=O)(O)O)[C@H]1O)OC(=O)CCCCCCC. The source says: (§1) malachite green phosphate release, Lineweaver-Burk on EhPTEN1
In series [2] the test system is CCCCCCCC(=O)OC[C@H](COP(=O)(O)O[C@H]1[C@H](O)[C@@H](O)[C@H](OP(=O)(O)O)[C@@H](OP(=O)(O)O)[C@H]1O)OC(=O)CCCCCCC.
Source text: as §1

Series [3] deals with CCCCCCCC(=O)OC[C@H](COP(=O)(O)O[C@@H]1[C@H](O)[C@H](OP(=O)(O)O)[C@@H](O)[C@H](OP(=O)(O)O)[C@H]1O)OC(=O)CCCCCCC.
Source text: as §1

On to “EhPTEN1 (Entamoeba histolytica HM-1:IMSS)”, for which, in series [1], the Km is 92.5 ± 4.72 µM, the Vmax came to 0.0169 µmol/min/mg and the kcat is 0.00517 ± 0.0005 s⁻¹. For the same substance, in series [2], the Km turned out to be 292 ± 18.8 µM, the Vmax amounted to 0.00602 µmol/min/mg and the kcat stood at 0.00183 ± 0.000333 s⁻¹. In series [3], the Km was 161 ± 20.1 µM, the Vmax worked out at 0.0084 µmol/min/mg and the kcat was found to be 0.0025 ± 0.000167 s⁻¹.

Values taken from publication PMC9122207, “PTEN differentially regulates endocytosis, migration, and proliferation in the enteric protozoan parasite Entamoeba histolytica” (PLoS Pathogens, 2022).
